± gives the uncertainty stated by the source.

The data set is described as follows: self-splicing fitness, log relative to wild type (ln ratio); higher = more splicing; Tetrahymena group I intron in knt gene, E. coli kanamycin selection, DiMSum; sequences stand for … in CUCUCU…GGAGGGAAAAGUUAUCAGGCAUGCACCUGGUAGCUAGUCUUUAAACCAAUAGAUUGCAUCGGUUUAAAAGGCAAGACCGUCAAAUUGCGGGAAAGGGGUCAACAGCCGUUCAGUACCAAGUCUCAGGGGAAACUUUGAGAUGGCCUUGCAAAGGGUAUGGUAAUAAGCUGACGGACAUGGUCCUAACCACGCAGCCAAGUCCUAAGUCAACAGAUCUUCUGUUGAUAUGGAUGCAGUUCACAGACUAAAUGUCGGUCGGGGAAGAUGUAUUCUUCUCAUAAGAUAUAGUCGGACCUCUCCUUAAUGGGAGCUAGCGGAUGAAGUGAUGCAACACUGGAGCCGCUGGGAACUAAUUUGUAUGCGAAAGUAUAUUGAUUAGUUUUGGAGUACUCGUGGUCG
Put shortly: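 Six replicate transformations of E. coli BL21(DE3) with a pET-22b(+) library were grown overnight at 37°C or 30°C. The library randomised all eight P1ex-region intron nucleotides, the intron lying in the knt kanamycin-resistance gene, and plates were LB agar with or without 25 μg/mL kanamycin plus 100 μg/mL carbenicillin, 50 μM IPTG and 0.2% rhamnose. Pooled colonies were amplicon-sequenced on an Illumina HiSeq 2500, and fitness is the DiMSum error-weighted combination of wild-type-normalised replicate fold changes, kanamycin versus none.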

In the case of UGAAAGCAAUAUUACGUCGA, the “self-splicing fitness (ln)” value reads like this: (30 °C) -0.893 ± 0.08; (37 °C) -0.374 ± 0.1.

Regarding GUUUAGCAAUAUUACGCACC, the “self-splicing fitness (ln)” value (30 °C) was -1.95 ± 0.19 and the “self-splicing fitness (ln)” value (37 °C) was -0.522 ± 0.26.

With AUAGAGCAAUAUUACGGACU, the “self-splicing fitness (ln)” value by setting is: (30 °C) -1.15 ± 0.13; (37 °C) -1.65 ± 0.23.

With GGGAAGCAAUAUUACGUAGU, the “self-splicing fitness (ln)” value runs as follows: (30 °C) -3.38 ± 0.18; (37 °C) -2.18 ± 0.17.

For the sequence GGUCAGCAAUAUUACGUUUA, the “self-splicing fitness (ln)” value is -1.23 ± 0.1 (30 °C) and -0.167 ± 0.1 (37 °C).

Take GGCUAGCAAUAUUACGAAAC: the “self-splicing fitness (ln)” value (37 °C) is -0.972 ± 0.4.

As for CGCGAGCAAUAUUACGGCAU, the “self-splicing fitness (ln)” value by setting is: (30 °C) -2.86 ± 0.17; (37 °C) -1.43 ± 0.12.

For the sequence UUAUAGCAAUAUUACGGCAG, the “self-splicing fitness (ln)” value is -0.689 ± 0.094 (30 °C) and -0.0118 ± 0.13 (37 °C).

With AUAGAGCAAUAUUACGUACC, the “self-splicing fitness (ln)” value by setting is: (30 °C) -3.3 ± 0.16; (37 °C) -1.3 ± 0.15.

As for UAUCAGCAAUAUUACGAGGC, the “self-splicing fitness (ln)” value (37 °C) was -2.77 ± 0.37.

In the case of UGAUAGCAAUAUUACGCGCA, the “self-splicing fitness (ln)” value is -0.408 ± 0.091 (30 °C) and 0.2 ± 0.1 (37 °C).

As to AAUAAGCAAUAUUACGGCAG, the “self-splicing fitness (ln)” value (30 °C) was -0.454 ± 0.11 and the “self-splicing fitness (ln)” value (37 °C) is -0.547 ± 0.16.

As to AAGGAGCAAUAUUACGCCUG, the “self-splicing fitness (ln)” value (30 °C) was -2.1 ± 0.28 and the “self-splicing fitness (ln)” value (37 °C) was -0.484 ± 0.44.

Turning to GCACAGCAAUAUUACGAAUG, the “self-splicing fitness (ln)” value was -1.89 ± 0.051 (30 °C) and -1.09 ± 0.063 (37 °C).

For the sequence UAGGAGCAAUAUUACGAGCC, the “self-splicing fitness (ln)” value is -3.1 ± 0.3 (30 °C) and -2.82 ± 0.47 (37 °C).

With GCACAGCAAUAUUACGGGGG, the “self-splicing fitness (ln)” value is -1.97 ± 0.088 (30 °C) and -0.472 ± 0.08 (37 °C).

As to UAGUAGCAAUAUUACGUUCC, the “self-splicing fitness (ln)” value reads like this: (30 °C) -4.21 ± 0.35; (37 °C) -0.984 ± 0.19.

As to AUAUAGCAAUAUUACGGCAC, the “self-splicing fitness (ln)” value by setting is: (30 °C) -2 ± 0.24; (37 °C) 0.951 ± 0.25.

Consider AAACAGCAAUAUUACGUCCG, for which the “self-splicing fitness (ln)” value reads like this: (30 °C) -1.89 ± 0.082; (37 °C) -0.645 ± 0.1.

Consider UGCUAGCAAUAUUACGUCCC, for which the “self-splicing fitness (ln)” value was -3.34 ± 0.18 (30 °C) and -0.521 ± 0.12 (37 °C).

UGAAAGCAAUAUUACGGAUU: the “self-splicing fitness (ln)” value reads like this: (30 °C) -1.99 ± 0.17; (37 °C) -1.09 ± 0.18.

Consider ACCAAGCAAUAUUACGGGAG, for which the “self-splicing fitness (ln)” value was -3.22 ± 0.13 (30 °C) and -2.66 ± 0.14 (37 °C).

Regarding ACGCAGCAAUAUUACGAAGG, the “self-splicing fitness (ln)” value is, setting by setting: (30 °C) -2.61 ± 0.13; (37 °C) -1.3 ± 0.14.

Regarding UUUCAGCAAUAUUACGCGCC, the “self-splicing fitness (ln)” value reads like this: (30 °C) -1.72 ± 0.24; (37 °C) -0.992 ± 0.37.

With UGAAAGCAAUAUUACGGUUA, the “self-splicing fitness (ln)” value is, setting by setting: (30 °C) -0.156 ± 0.07; (37 °C) -0.217 ± 0.064.

As for AGCCAGCAAUAUUACGAGAU, the “self-splicing fitness (ln)” value by setting is: (30 °C) -3.39 ± 0.18; (37 °C) -2.28 ± 0.2.

As to GGGGAGCAAUAUUACGAACG, the “self-splicing fitness (ln)” value (37 °C) was -1.11 ± 0.36.

On to AUUUAGCAAUAUUACGCUAA, for which the “self-splicing fitness (ln)” value was -2.13 ± 0.23 (30 °C) and -1.3 ± 0.31 (37 °C).

For GUAUAGCAAUAUUACGCGCU, the “self-splicing fitness (ln)” value by setting is: (30 °C) -2.22 ± 0.16; (37 °C) -0.818 ± 0.16.

Turning to GCUCAGCAAUAUUACGACUA, the “self-splicing fitness (ln)” value was -0.565 ± 0.17 (30 °C) and -0.247 ± 0.18 (37 °C).

In the case of UGUAAGCAAUAUUACGACUC, the “self-splicing fitness (ln)” value (30 °C) is -1.52 ± 0.19 and the “self-splicing fitness (ln)” value (37 °C) was -0.632 ± 0.25.

For the sequence UUCCAGCAAUAUUACGGCCA, the “self-splicing fitness (ln)” value reads like this: (30 °C) -1.08 ± 0.13; (37 °C) 0.682 ± 0.16.

Regarding CCAUAGCAAUAUUACGUUAA, the “self-splicing fitness (ln)” value (30 °C) is -3.44 ± 0.34 and the “self-splicing fitness (ln)” value (37 °C) is -3.04 ± 0.38.

For UGAGAGCAAUAUUACGUUCU, the “self-splicing fitness (ln)” value (30 °C) is -3.3 ± 0.25 and the “self-splicing fitness (ln)” value (37 °C) was -2.03 ± 0.27.

As for AUGUAGCAAUAUUACGAAUU, the “self-splicing fitness (ln)” value by setting is: (30 °C) -2 ± 0.12; (37 °C) -1.84 ± 0.16.

On to AAAGAGCAAUAUUACGUUGG, for which the “self-splicing fitness (ln)” value by setting is: (30 °C) -3.59 ± 0.22; (37 °C) -2.4 ± 0.25.

For the sequence AGUCAGCAAUAUUACGCGCU, the “self-splicing fitness (ln)” value (30 °C) is -3.02 ± 0.14 and the “self-splicing fitness (ln)” value (37 °C) is -1.86 ± 0.21.

As to GGAUAGCAAUAUUACGUAAG, the “self-splicing fitness (ln)” value (30 °C) was -1.87 ± 0.17 and the “self-splicing fitness (ln)” value (37 °C) was -0.386 ± 0.2.

Consider AUGCAGCAAUAUUACGAUAU, for which the “self-splicing fitness (ln)” value runs as follows: (30 °C) -1.04 ± 0.054; (37 °C) 0.0687 ± 0.07.

For the sequence GCUAAGCAAUAUUACGCAUA, the “self-splicing fitness (ln)” value reads like this: (30 °C) -1.97 ± 0.11; (37 °C) -1.5 ± 0.093.

Take UCAUAGCAAUAUUACGAUAG: the “self-splicing fitness (ln)” value (30 °C) was -3.22 ± 0.19 and the “self-splicing fitness (ln)” value (37 °C) is -1.79 ± 0.13.

As for AAUCAGCAAUAUUACGCUAG, the “self-splicing fitness (ln)” value was -0.729 ± 0.066 (30 °C) and 0.121 ± 0.09 (37 °C).

In the case of UAGUAGCAAUAUUACGAAUC, the “self-splicing fitness (ln)” value (30 °C) was -2.9 ± 0.48.

On to GUCGAGCAAUAUUACGGGUU, for which the “self-splicing fitness (ln)” value by setting is: (30 °C) -3.03 ± 0.2; (37 °C) -1.04 ± 0.16.

In the case of UUCAAGCAAUAUUACGCGCU, the “self-splicing fitness (ln)” value is -1.69 ± 0.12 (30 °C) and -1.44 ± 0.13 (37 °C).

Turning to GUUGAGCAAUAUUACGGAGA, the “self-splicing fitness (ln)” value reads like this: (30 °C) -2.47 ± 0.45; (37 °C) -1.8 ± 0.35.

For the sequence UUCCAGCAAUAUUACGCCUA, the “self-splicing fitness (ln)” value reads like this: (30 °C) -0.199 ± 0.076; (37 °C) 0.206 ± 0.091.

On to GUAUAGCAAUAUUACGUUCA, for which the “self-splicing fitness (ln)” value was -1.06 ± 0.2 (30 °C) and -0.424 ± 0.23 (37 °C).

In the case of GUGUAGCAAUAUUACGCCCG, the “self-splicing fitness (ln)” value reads like this: (30 °C) -2.51 ± 0.35; (37 °C) -0.74 ± 0.23.

As to UCAUAGCAAUAUUACGUGUG, the “self-splicing fitness (ln)” value is -1.8 ± 0.068 (30 °C) and -1.84 ± 0.075 (37 °C).

Turning to UCGUAGCAAUAUUACGAUUG, the “self-splicing fitness (ln)” value is, setting by setting: (30 °C) -2.6 ± 0.15; (37 °C) -2.92 ± 0.28.

Turning to GUACAGCAAUAUUACGUUAU, the “self-splicing fitness (ln)” value by setting is: (30 °C) -4.01 ± 0.25; (37 °C) -1.87 ± 0.14.

GGCGAGCAAUAUUACGGGCU: the “self-splicing fitness (ln)” value (30 °C) was -2.07 ± 0.36 and the “self-splicing fitness (ln)” value (37 °C) was -1.23 ± 0.28.

Turning to GAUUAGCAAUAUUACGGACG, the “self-splicing fitness (ln)” value reads like this: (30 °C) -0.885 ± 0.19; (37 °C) 0.241 ± 0.16.

Consider CGUGAGCAAUAUUACGUUAU, for which the “self-splicing fitness (ln)” value is -4.44 ± 0.36 (30 °C) and -2.38 ± 0.18 (37 °C).

Take UCGGAGCAAUAUUACGGUCU: for the setting “30 °C”, the “self-splicing fitness (ln)” value was -0.916 ± 0.37.

As to GGUGAGCAAUAUUACGAGCA, the “self-splicing fitness (ln)” value is -0.652 ± 0.23 (30 °C) and -1.1 ± 0.29 (37 °C).

Regarding AAACAGCAAUAUUACGUCUG, the “self-splicing fitness (ln)” value by setting is: (30 °C) -2.28 ± 0.084; (37 °C) -1.17 ± 0.095.

With CAUCAGCAAUAUUACGAGAC, the “self-splicing fitness (ln)” value is -3.95 ± 0.23 (30 °C) and -2.73 ± 0.16 (37 °C).

For CCAGAGCAAUAUUACGCUCA, the “self-splicing fitness (ln)” value was -3.24 ± 0.38 (30 °C) and -1.42 ± 0.37 (37 °C).

In the case of UCAGAGCAAUAUUACGCGUG, the “self-splicing fitness (ln)” value by setting is: (30 °C) -2.31 ± 0.16; (37 °C) -2.05 ± 0.15.

(Values after the supplement of paper PMC7877785.)
